The values that follow come from patent publication US20100098696A1.

Assay [1] deals with Murine FGFR-3(IIIc) expressed on L6 cells (murine) (UniProt Q61851). Kind of assay: fluorescent antibody 200 nM on FGFR-3 transfected L6 cells, 1 h at 4° C. followed by acid stripping, Odyssey imaging.
The target is the same in assay [2]. Description: fluorescent antibody 200 nM on FGFR-3 transfected L6 cells, 1 h at 37° C. followed by acid stripping, Odyssey imaging.
For assay [3] the target is unchanged. Kind of assay: fluorescent antibody 200 nM on FGFR-3 transfected L6 cells, 1 h at 37° C., Odyssey imaging.
For assay [4] the target is unchanged. Kind of assay: fluorescent antibody 200 nM on FGFR-3 transfected L6 cells, 1 h at 4° C., Odyssey imaging.

Sequence of Murine FGFR-3(IIIc) expressed on L6 cells (murine) (Q61851 21-801): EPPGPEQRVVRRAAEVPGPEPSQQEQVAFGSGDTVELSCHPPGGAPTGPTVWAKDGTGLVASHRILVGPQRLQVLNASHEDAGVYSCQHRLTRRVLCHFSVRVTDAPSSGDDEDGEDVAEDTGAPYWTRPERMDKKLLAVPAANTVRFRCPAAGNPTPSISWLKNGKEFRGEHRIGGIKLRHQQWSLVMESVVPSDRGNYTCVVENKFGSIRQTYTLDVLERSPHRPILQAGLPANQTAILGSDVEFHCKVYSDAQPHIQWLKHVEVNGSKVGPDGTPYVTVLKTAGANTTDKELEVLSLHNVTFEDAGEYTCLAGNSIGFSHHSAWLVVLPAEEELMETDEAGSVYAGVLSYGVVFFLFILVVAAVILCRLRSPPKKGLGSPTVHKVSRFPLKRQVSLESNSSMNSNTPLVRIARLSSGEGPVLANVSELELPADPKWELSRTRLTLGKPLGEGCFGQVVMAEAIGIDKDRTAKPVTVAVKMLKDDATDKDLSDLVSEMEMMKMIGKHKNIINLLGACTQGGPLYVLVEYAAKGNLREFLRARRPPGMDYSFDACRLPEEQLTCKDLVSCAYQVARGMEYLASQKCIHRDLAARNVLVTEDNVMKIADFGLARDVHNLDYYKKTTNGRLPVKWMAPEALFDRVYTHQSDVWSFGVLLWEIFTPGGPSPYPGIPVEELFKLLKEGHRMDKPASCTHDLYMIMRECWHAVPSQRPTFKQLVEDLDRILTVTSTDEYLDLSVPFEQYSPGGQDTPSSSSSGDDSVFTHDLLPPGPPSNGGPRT

Turning to “isotype-matched non-specific control antibody”, the relative fluorescent intensity in assay [1] turned out to be 0.6; in assay [2], 1; in assay [3], 1.1; in assay [4], 1.5.
